Data from patent US20060171935A1, “Protecting cell therapy for neurological disorders including Parkinson's disease” (priority 2005, published 2006).

Key:
αSyn [1] = target: T1, αSyn (Homo sapiens, UniProt P37840); experiment: αSyn Congo red-positive fibril formation in vitro; assay type: biochemical; settings: 200 μM αSyn, proteins 100 μM, 1 wk at 37° C.
Description: αSyn protofibril and fibril formation assays were performed essentially as described (Uversky et al.). […] For fibril formation, αSyn and chaperone proteins (as described above) were incubated with shaking for 1 wk at 37° C. Fibril formation was assessed by Congo red (Conway et al. 2000b).

αSyn [2] = target: T1, αSyn; experiment: αSyn protofibril formation in vitro; assay type: biochemical; settings: molar ratio 1:2 (DJ-1: αSyn), 2 h at 55° C.
Description: αSyn protofibril and fibril formation assays were performed essentially as described (Uversky et al.). Briefly, protofibrils were formed by incubation of 200 μM WT synuclein with 100 μM DJ-1 or control chaperone protein in PBS for 2 h at 55° C. Samples were mixed with SDS loading buffer and analyzed by SDS-PAGE and Western blotting using αSyn LB509 antibody (Zymed). Quantitation of high molecular weight αSyn was performed using NIH Image J. Integrated pixel intensity of high molecular weight synuclein for each sample was normalized to monomeric synuclein intensity. For fibril formation, αSyn and chaperone proteins (as described above) were incubated with shaking for 1 wk at 37° C. Fibril formation was assessed by Congo red (Conway et al. 2000b).

[3] = test system: DJ-1 deficient dopamine neurons; experiment: 6-OHDA sensitivity of ES-derived dopamine neurons, 3H-dopamine uptake; assay type: cell-based, murine; settings: 9 DIV, 72 h exposure
From the text: (A) The SDIA coculture method. DJ-1 knockout or control heterozygous ES cells are cocultured with mouse stromal cells (MS5) in the absence of serum and leukemia inhibitory factor for 18 DIV. (B) DN production was quantified at 18 DIV by 3H-dopamine uptake assay. DJ-1-deficient ES cell cultures were defective relative to heterozygous control cultures. (C-D) Neuron production was quantified by immunohistochemical analysis as a percent of TuJ1-positive colonies that express TH (C) or GABA (D). Quantification of TH and GABA immunostaining was performed on all colonies in each of three independent wells. Colonies were scored as positive if any immunostained cells were present. *p≦0.05. […] (F) Kinetic analysis of DN differentiation in DJ-1-deficient cultures (clone 32, solid square) and heterozygous controls (open circle) as quantified by 3H-dopamine uptake assay. *p≦0.05. […] DNs were quantified by 3H-dopamine uptake assay. Data represent the means±SEM and were analyzed by ANOVA followed by Fisher's post-hoc test. *p≦0.05. […]
In Vivo Assays. […] Cell viability (as a percent of untreated control) was determined by MTT assay in triplicate (Fezoui et al. 2000). […] Reported values represent specific uptake from which non-specific uptake, determined in the presence of mazindol, was subtracted, and normalized for protein content (BCA kit, Pierce).

Compound | formation of Congo red-positive αSyn fibrils (αSyn [1]) | formation of soluble αSyn protofibrils (αSyn [2]) | sensitivity of DJ-1 deficient dopamine neurons to toxin [3]
glutathione S-transferase [GST] | did not | failed to inhibit | –
NCCc1cc(O)c(O)cc1O [6-OHDA, 6-hydroxydopamine] | – | – | increased sensitivity
